What is called EC50 is the concentration that produces a half-maximal response. Read a low EC50 as a more potent agent. As a reminder, the IC50 is the concentration that gives 50% inhibition. A low value points to inhibition by little substance. The term Kd denotes a measure of binding affinity in units of concentration. What is called koff is the first-order rate constant of dissociation. The kon is the second-order rate constant of association. Lower therefore signals slower complex formation.

The results in this text go back to patent US20200055937A1 (REMD BIOTHERAPEUTICS, published 2020).

The target of assay [1] is T1, CTLA4-Fc (UniProt P16410 36-161, limits assumed).
T1 sequence (looked up): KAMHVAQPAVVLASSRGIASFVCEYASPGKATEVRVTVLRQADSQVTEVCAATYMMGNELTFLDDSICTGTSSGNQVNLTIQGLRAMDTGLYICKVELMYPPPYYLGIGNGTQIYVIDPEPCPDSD
The assay is described as follows: cell-based or functional assay.

For assay [2], the target named is T2, cyno Macaque CTLA-4 (cyno Macaque, UniProt G7PL88 36-161).
T2 construct: ELISA antigen; construct not described; also called CynoCTLA-4; cyno CTLA-4
T2 sequence: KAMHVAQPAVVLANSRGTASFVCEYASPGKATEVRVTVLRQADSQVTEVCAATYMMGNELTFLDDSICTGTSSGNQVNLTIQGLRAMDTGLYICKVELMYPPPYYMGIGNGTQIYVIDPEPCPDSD
The assay is described as follows: ELISA, cyno CTLA-4 binding. For orientation: In an ELISA, binding on a coated surface is turned into a signal by an enzyme label.

Assay [3] addresses T3, human CTLA-4 (human, UniProt P16410 36-161, limits assumed).
T3 construct: also called HuCTLA-4; human cytotoxic T lymphocyte antigen-4
T3 sequence: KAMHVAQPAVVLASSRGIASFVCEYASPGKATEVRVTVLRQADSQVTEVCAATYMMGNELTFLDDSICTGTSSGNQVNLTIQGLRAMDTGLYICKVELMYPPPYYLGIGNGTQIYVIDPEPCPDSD
The assay is described as follows: ELISA, human CTLA-4 binding.

The target in assay [4] is T4, murine CTLA-4 (murine, UniProt P09793 36-161, limits assumed).
T4 construct: ELISA antigen; construct not described; also called mouse CTLA-4
The assay is described as follows: ELISA, murine CTLA-4 binding assay.

Assay [5] addresses T3, human CTLA-4. The assay is described as follows: ligand blocking assay with purified proteins; competitor CD80.
Assay [6] concerns the target T3, human CTLA-4. The assay is described as follows: ligand blocking assay with purified proteins; competitor CD86.
Assay [7] deals with T3, human CTLA-4. The assay is described as follows: ratio of the IC50 for blocking CD80 to the IC50 for blocking CD86 on CTLA-4.
Assay [8] deals with T5, CTLA4-his (UniProt P16410 36-161, limits assumed).
T5 construct: construct not described; also called Ag CTLA4-his; Antigen CTLA4-his; not shown: his tag
T5 sequence (looked up): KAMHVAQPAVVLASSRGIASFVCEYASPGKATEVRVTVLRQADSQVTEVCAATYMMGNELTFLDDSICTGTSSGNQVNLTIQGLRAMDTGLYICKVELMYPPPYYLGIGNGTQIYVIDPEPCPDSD
The assay is described as follows: SPR Biacore T200, antibody from supernatant captured by anti-human Fc, CTLA4-his injected. The protocol:
Affinity ranking of the fifteen humanized antibodies was determined using a Surface Plasmon Resonance (SPR) biosensor, Biacore T200 (GE Healthcare). Anti-human Fc gamma specific antibody was immobilized onto the sensor chip using amine coupling method. […] After equilibration, Ag CTLA4-his was injected for 300 seconds (association phase) followed by the injection of running buffer for 600s (dissociation phase). Responses of reference flow cell (flow cell 1) were subtracted from those of humanized antibodies flow cells during each cycle. The surface was regenerated before the injection of other humanized antibodies. The process was repeated until all antibodies are analyzed. The off-rates of humanized antibodies were obtained from fitting the experimental data locally to 1:1 interaction model using the Biacore 8K evaluation software. The antibodies were ranked by their dissociation rate constants (off-rates, kd).

B1: MAb A2 (7G10D3) (antibody, V domains shown)
VH: QIQLVQSGPELKKPGETVKISCKASGYTFTTYGMSWVKQTPGKGLKWMGWINTYSGVPTYADDFKGRFAFSLETSASTAYLQINNLKNEDTATYFCARGRDYYGSSYRLFGVWGTGTTVTVSS
VL: DIQMTQTTSSLSASLGDRVTISCRASQDISNYLNWYQQKPDGTVKLLIYYTSILNSGVPSKFSGSGSGTDYSLTISNLEQEDIATYFCQQGNTLPWTFGGGTKLEIK
notes: also called murine antibody A2
For the molecule B1, the “IC50 (nM), IL-2 secreted by Jurkat cells co-cultured with CHO/CD80 cells, Experiment 1” value in assay [1] was 26.4 nM. Further, the “IC50 (nM), IL-2 secreted by Jurkat cells co-cultured with CHO/CD80 cells, Experiment 2” value in assay [1] amounted to 22.3 nM. Besides, the EC50 in assay [2] came out at 0.01 nM; in assay [3] it was 0.077 nM. In addition, the binding result in assay [4] is listed as “no binding”. For the same molecule, the IC50 in assay [5] was 12.8 nM; in assay [6], 1.61 nM. The “CD80/CD86 Blocking Ratio” value in assay [7] worked out at 7.91.

B2: MAb A5 (32G4C12) (antibody, V domains shown)
VH: QVQLQQSGPELVRPGASVKLSCKASGYTFTTYDINWVKQRPGQGLEWIGWIYPRDGSIIFNEKFKGKATLTVDTTSSTAYMELHSLTSEDSAVYFCARRGLLGPLDYWGQGTPLTVSS
VL: DIVMTQSHKFMSTSVGDRVSITCKASQDVATTVAWYQQKPGQSPKLVIYWASTRHTGVPDRFTGSGSGTDFTLTISNVQSEDLADYFCQQYSSYPTFGVGTKLELK
notes: also called murine antibody A5
B2: in assay [1], the “IC50 (nM), IL-2 secreted by Jurkat cells co-cultured with CHO/CD80 cells, Experiment 1” value worked out at 27.3 nM. For the same molecule, in assay [1], the “IC50 (nM), IL-2 secreted by Jurkat cells co-cultured with CHO/CD80 cells, Experiment 2” value was found to be 16.6 nM. Besides, the EC50 worked out at 0.045 nM in assay [2] and 0.049 nM in assay [3]. Also, the binding result in assay [4] is “no binding”. The IC50 is 0.641 nM in assay [5] and 0.271 nM in assay [6]. Besides, the “CD80/CD86 Blocking Ratio” value in assay [7] came out at 2.37.

B3: Humanized Ab 8 (VH3 + VL2) (antibody, human IgG1, kappa, V domains shown)
VH: QVQLVQSGAEVKKPGASVKVSCKASGYKFTDHFINWVKQAPGQGLEWIGDINPNNGGTNSNQKFEGRVTLTVDTSISTAYMELSRLRSDDTAVYYCARLRREYFYAMDYWGQGTLVTVSS
VL: DIVMTQSPLSLPVTPGEPASISCRSSKSLLHSNGITYLYWYLQKPGQSPQLLIYQMSNLASGVPDRFSSSGSGTDFTLKISRVEAEDVGVYYCAQNLELPLTFGGGTKVEIKR
notes: Humanized IgG1 derived from MAb A4, full length, HEK293
In assay [8], B3 showed a Kd of 0.791 nM, a koff of 0.000523 s⁻¹ and a kon of 661000 M⁻¹ s⁻¹.

B4: Humanized Ab 10 (VH4 + VL1) (antibody, human IgG1, kappa, V domains shown)
VH: QVQLVQSGAEVKKPGASVKISCKASGYKFTDHFINWVKQAPGQGLEWIGDINPNNGGTNSNQKFEGRATLTVDTSISTAYMELSRLRSDDTAVYYCARLRREYFYAMDYWGQGTLVTVSS
VL: DIVMTQSPLSLPVTPGEPASISCRSSKSLLHSNGITYLYWYLQKPGQSPQLLIYQMSNLASGVPDRFSGSGSGTDFTLKISRVEAEDVGVYYCAQNLELPLTFGGGTKVEIKR
notes: as for B3
In assay [8], B4 showed a Kd of 0.852 nM, a koff of 0.000288 s⁻¹ and a kon of 338000 M⁻¹ s⁻¹.

B5: Humanized Ab 3 (VH1 + VL3) (antibody, human IgG1, kappa)
heavy: not shown
light: DIVMTQSPLSLPVTPGEPASISCRSSKSLLHSNGITYLYWYLQKPGQSPQLLIYQMSNLASGVPDRFSSSGSGTDFTLKISRVEAEDVGVYYCAQNLELPLTFGGGTKLEIKRTVAAPSVFIFPPSDEQLKSGTASVVCLLNNFYPREAKVQWKVDNALQSGNSQESVTEQDSKDSTYSLSSTLTLSKADYEKHKVYACEVTHQGLSSPVTKSFNRGEC
notes: as for B3
In assay [8], B5 gave a Kd of 1.17 nM, a koff of 0.000437 s⁻¹ and a kon of 375000 M⁻¹ s⁻¹.

B6: Humanized Ab 6 (VH2 + VL3) (antibody, human IgG1, kappa)
heavy: not shown
light: DIVMTQSPLSLPVTPGEPASISCRSSKSLLHSNGITYLYWYLQKPGQSPQLLIYQMSNLASGVPDRFSSSGSGTDFTLKISRVEAEDVGVYYCAQNLELPLTFGGGTKLEIKRTVAAPSVFIFPPSDEQLKSGTASVVCLLNNFYPREAKVQWKVDNALQSGNSQESVTEQDSKDSTYSLSSTLTLSKADYEKHKVYACEVTHQGLSSPVTKSFNRGEC
notes: as for B3
In assay [8], B6 gave a Kd of 1.16 nM, a koff of 0.000347 s⁻¹ and a kon of 300000 M⁻¹ s⁻¹.

B7: Humanized Ab 5 (VH2 + VL2) (antibody, human IgG1, kappa)
heavy: not shown
light: DIVMTQSPLSLPVTPGEPASISCRSSKSLLHSNGITYLYWYLQKPGQSPQLLIYQMSNLASGVPDRFSSSGSGTDFTLKISRVEAEDVGVYYCAQNLELPLTFGGGTKVEIKRTVAAPSVFIFPPSDEQLKSGTASVVCLLNNFYPREAKVQWKVDNALQSGNSQESVTEQDSKDSTYSLSSTLTLSKADYEKHKVYACEVTHQGLSSPVTKSFNRGEC
notes: as for B3
B7: in assay [8], the Kd stood at 1.12 nM, the koff was found to be 0.000345 s⁻¹ and the kon is 309000 M⁻¹ s⁻¹.

B8: Humanized Ab 2 (VH1 + VL2) (antibody, human IgG1, kappa)
heavy: not shown
light: DIVMTQSPLSLPVTPGEPASISCRSSKSLLHSNGITYLYWYLQKPGQSPQLLIYQMSNLASGVPDRFSSSGSGTDFTLKISRVEAEDVGVYYCAQNLELPLTFGGGTKVEIKRTVAAPSVFIFPPSDEQLKSGTASVVCLLNNFYPREAKVQWKVDNALQSGNSQESVTEQDSKDSTYSLSSTLTLSKADYEKHKVYACEVTHQGLSSPVTKSFNRGEC
notes: as for B3
For the molecule B8, in assay [8], the affinity, expressed as Kd, was 1 nM; the koff amounted to 0.000351 s⁻¹; the kon is 350000 M⁻¹ s⁻¹.

B9: Humanized Ab 13 (VH5 + VL3) (antibody, human IgG1, kappa, V domains shown)
VH: QVQLVQSGAEVVKPGASVKISCKASGYKFTDHFINWVKQNPGQGLEWIGDINPNNGGTNSNQKFEGRATLTVDTSISTAYMELSRLRSDDTAVYYCARLRREYFYAMDYWGQGTLVTVSS
VL: DIVMTQSPLSLPVTPGEPASISCRSSKSLLHSNGITYLYWYLQKPGQSPQLLIYQMSNLASGVPDRFSSSGSGTDFTLKISRVEAEDVGVYYCAQNLELPLTFGGGTKLEIKR
notes: as for B3
In assay [8], B9 showed a Kd of 0.542 nM, a koff of 0.00016 s⁻¹ and a kon of 295000 M⁻¹ s⁻¹.

B10: Humanized Ab 12 (VH4 + VL3) (antibody, human IgG1, kappa)
heavy: not shown
light: DIVMTQSPLSLPVTPGEPASISCRSSKSLLHSNGITYLYWYLQKPGQSPQLLIYQMSNLASGVPDRFSSSGSGTDFTLKISRVEAEDVGVYYCAQNLELPLTFGGGTKLEIKRTVAAPSVFIFPPSDEQLKSGTASVVCLLNNFYPREAKVQWKVDNALQSGNSQESVTEQDSKDSTYSLSSTLTLSKADYEKHKVYACEVTHQGLSSPVTKSFNRGEC
notes: as for B3
B10: in assay [8], the Kd turned out to be 0.435 nM, the koff was determined as 0.000397 s⁻¹ and the kon came to 913000 M⁻¹ s⁻¹.

B11: Humanized Ab 4 (VH2 + VL1) (antibody, human IgG1, kappa, V domains shown)
VH: QVQLVQSGAEVKKPGASVKVSCKASGYKFTDHFINWVRQAPGQGLEWIGDINPNNGGTNSNQKFEGRVTMTVDTSISTAYMELSRLRSDDTAVYYCARLRREYFYAMDYWGQGTLVTVSS
VL: DIVMTQSPLSLPVTPGEPASISCRSSKSLLHSNGITYLYWYLQKPGQSPQLLIYQMSNLASGVPDRFSGSGSGTDFTLKISRVEAEDVGVYYCAQNLELPLTFGGGTKVEIKR
notes: as for B3
In assay [8], B11 had a Kd of 0.83 nM, a koff of 0.000611 s⁻¹ and a kon of 736000 M⁻¹ s⁻¹.

B12: Humanized Ab 1 (VH1 + VL1) (antibody, human IgG1, kappa, V domains shown)
VH: QVQLVQSGAEVKKPGASVKVSCKASGYKFTDHFINWVRQAPGQGLEWMGDINPNNGGTNSNQKFEGRVTMTRDTSISTAYMELSRLRSDDTAVYYCARLRREYFYAMDYWGQGTLVTVSS
VL: DIVMTQSPLSLPVTPGEPASISCRSSKSLLHSNGITYLYWYLQKPGQSPQLLIYQMSNLASGVPDRFSGSGSGTDFTLKISRVEAEDVGVYYCAQNLELPLTFGGGTKVEIKR
notes: as for B3
For the molecule B12, in assay [8], the affinity, expressed as Kd, was 1.2 nM; the koff worked out at 0.000338 s⁻¹; the kon is 281000 M⁻¹ s⁻¹.

B13: Humanized Ab 7 (VH3 + VL1) (antibody, human IgG1, kappa, V domains shown)
VH: QVQLVQSGAEVKKPGASVKVSCKASGYKFTDHFINWVKQAPGQGLEWIGDINPNNGGTNSNQKFEGRVTLTVDTSISTAYMELSRLRSDDTAVYYCARLRREYFYAMDYWGQGTLVTVSS
VL: DIVMTQSPLSLPVTPGEPASISCRSSKSLLHSNGITYLYWYLQKPGQSPQLLIYQMSNLASGVPDRFSGSGSGTDFTLKISRVEAEDVGVYYCAQNLELPLTFGGGTKVEIKR
notes: as for B3
On to B13, for which, in assay [8], the Kd stood at 0.956 nM, the koff was determined as 0.000434 s⁻¹ and the kon stood at 454000 M⁻¹ s⁻¹.
